Experimental findings from the nanobody polyreactivity screen of Harvey et al. (2022) are described below.

The nature of the series: yeast display, Sf9 membrane polyspecificity reagent, FACS + sequencing; frameworks hold sequencing errors. An outline of the steps:
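Genes from sorted yeast were amplified by colony PCR, read by MiSeq 2 × 250 sequencing and filtered on CDR length. These cells carried a synthetic nanobody library in Saccharomyces cerevisiae BJ5465 and were sorted by FACS into low and high (top ~1%) gates on anti-HA and streptavidin fluorescence. Polyreactivity is labelled according to the gate of origin.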
On to “QVQLVESGGGLVQAGGSLRLSCAASGSIFSSYAMGWYRQAPGKERELVAAISSSGDSTYADSVKGRFTISRDNAKNTVYLQMNSLKPEDTAVYDCAVGGAGSDDYWGQGTQVTVSS”, for which the “polyreactivity (PSR sort gate)” value is “low polyreactivity”.
In the case of “QVQLVESGGGLVQAGGSLRLSCAASGSIFSSYAMGWYRQAPGKERELVASISRRGGSTYYADSVKGRFTISRDNAKNTVYLQMNSLKPEDTAVYYCNASGGPYRYYYWGQGTQVTVSS” it was “low polyreactivity”; in that of “QVQLVESGGGLVQAGGSLRLSCAASGSIFSSYTMGWYRQAPGKERELVASITSGDSTNYADSVKGRFTISRDNAKNTVYLQMNSLKPEDTAVYYCNKSTLGVPVYEVIFEYWGQGTQVTVSS”, “low polyreactivity”.
Take “QVQLVESGGGLVQAGGSLRLSCAASGSIFSSYVMGWYRQAPGKERELVAAITFSGATTYYADSVKGRFTISRDNAKNTVYLQMNSLKPEDTAVYYCATKAYTTGRYYWGQGTQVTVSS”: the “polyreactivity (PSR sort gate)” value is on record as “high polyreactivity”.
To “QVQLVESGGGLVQAGGSLRLSCAASGSIFSTNDMGWYRQAPGKERELVAAISVSGGSTYYADSVKGRFTISRDNAKNTVYLQMNSLKPEDTAVYYCNADYTRGTMYYWGQGTQVTGSS” belongs “low polyreactivity”.
To “QVQLVESGGGLVQAGGSLRLSCAASGSIFSTYAMGWYRQAPGKERELVAAINRGTSTNYADSVKGRFTISRDNAKNTVYLQMNSLKPEDTAVYYCAAYYRGRYGPRRSEYWGQGTQVTVSS” belongs “high polyreactivity”; to “QVQLVESGGGLVQAGGSLRLSCAASGSIFSTYAMGWYRQAPGKERELVAAISTRGGRTYYADSVKGRFTISRDNAKNTVYLQMNSLKPEDTAVYYCAAKRGKTYQRFDYWGQGTQVTVSS”, “high polyreactivity”; to “QVQLVESGGGLVQAGGSLRLSCAASGSIFSTYARGWYRQAPGKERELVATITSGGNTNYADSVKGRYTISRDNAKNTVYLQMNSLKPEDTAVDYSNKEWDGDGYTDDWDYDYWGQGTQVTVSS”, “low polyreactivity”.
In the case of “QVQLVESGGGLVQAGGSLRLSCAASGSIFSTYTMGWYRQAPGKERELVATIRLRGGSTYYADSVKGRFTISRDNAKNTVYLQMNSLKPEDTAVYYCNKAYRYYQYGYWGQGTQVTVSS” it was “high polyreactivity”.
Turning to “QVQLVESGGGLVQAGGSLRLSCAASGSIFSVNAMGWYRQAPGKERELVATITAGGGSTNYADSVKVRFTISRDNAKNTVYLQMNSLKPEDTAVYYCAADYWYVSWYDYWGQGTQVTVSS”, the “polyreactivity (PSR sort gate)” value is given as “low polyreactivity”.
In the case of “QVQLVESGGGLVQAGGSLRLSCAASGSIFSVYAMGWYRQAPGKERELVAAIDFSGGSTYYADSVKGRFTISRDNPKNTVYLQMNSLKPEDTAVYYCAAEYLPYPEYEYDYWGQGTQVTVSS” it was “low polyreactivity”; in that of “QVQLVESGGGLVQAGGSLRLSCAASGSIFSVYAMGWYRQAPGKERELVAAISTRGGSTYYADSVKGRFTISRDNAKNTVYLQMNSLKPEDTAVYYCAKRWPQYTDYKPMYYWGLGTQVTVSS”, “high polyreactivity”.
To “QVQLVESGGGLVQAGGSLRLSCAASGSIFSVYARGWSRQAPGKERELVAAITSGTSTYADSVKGRFTISRDNAKNTVYLQMNSLKPEDTAVYACAAESGSPGYYYWGQGTQVTVSS” belongs “low polyreactivity”; to “QVQLVESGGGLVQAGGSLRLSCAASGSIFSWYAMGWYRQAPGKERELVAAISNSGGSTYYADSVKGRFTISRDNAKNTVYLQMNSLKPEDTAVYYCAAYDGDTYDWGQGTQVTVSS”, “high polyreactivity”.
To “QVQLVESGGGLVQAGGSLRLSCAASGSIFSYKTMGWYRQAPGKERELVAAISSDGSTYYADSVKGRFTISRDNAKNTVYLQMNSLKPEDTAVYYCAATYYPYEHYYWGQGTQVTLSS” belongs “low polyreactivity”; to “QVQLVESGGGLVQAGGSLRLSCAASGSIFSYNAMGWYRQAPGKERELVAAIDWSGGSTYYADSVKGRFTISRDNAKNTVYLQMNSLKPVDTAVYYCNAVGVFYYSYHYHQYDYWGQGTQVTVSS”, “low polyreactivity”; to “QVQLVESGGGLVQAGGSLRLSCAASGSIFSYNAMGWYRQATGKERELVARITRGGDGTYYADSVKGRFTISRDNAKNTVYLQMNSLKPEDTAVYYCAATPYWYHLRVEGGYWGQGTQVTVSS”, “low polyreactivity”.
Turning to “QVQLVESGGGLVQAGGSLRLSCAASGSIFSYYAMGWNRQAHGKERELVASITRGGSTYYADSVKGRFTISRDNAKNTVYLQMNSLKPEDSAVYYCAAAARYYSRYDFPNNYWGQVTQVTVSS”, the “polyreactivity (PSR sort gate)” value is given as “low polyreactivity”.
In the case of “QVQLVESGGGLVQAGGSLRLSCAASGSIFSYYAMGWYRQAPGKERELVAAITSGGATTYYADSVKGRFTISRDNAKNTVYLQMNSLKPEDTAVYYCAAGYYVYYRWWELDYWGQGTQVTVSS” it was “low polyreactivity”; in that of “QVQLVESGGGLVQAGGSLRLSCAASGSIFSYYAMGWYRQAPGKERELVAAITTGGGTYYADSVKGRFTISRDNAKNTVYLQMNSLKPEDTAVYYCAKDGYPDQDVQVFNDSDYWGQGTQVTVSS”, “low polyreactivity”; in that of “QVQLVESGGGLVQAGGSLRLSCAASGSIFSYYAMGWYRQAPGKERELVATISSGGSTNYADSVKGRFTISRDNAKNTVYLQMNSLKPEDTAVYYCAATIGHNGFDYWGQGTQVTVSS”, “low polyreactivity”.
“QVQLVESGGGLVQAGGSLRLSCAASGSIFSYYDMGWYRQAPGKERELVAAITTGGSTNYADSVKGRFTISRDNAKNTVYLQMNSLKPEDTAVYYCNAGRWWSRGYGYWGQVTQVTVSS”: the “polyreactivity (PSR sort gate)” value is listed as “high polyreactivity”.
To “QVQLVESGGGLVQAGGSLRLSCAASGSIFSYYVMGWYRQAPGKERELVAAISYSGGRTYYADSVKGRFTISRDNAKNTVYLQMNSLKQEDTAVYYCARRSYVYPYGYDYWGQGTQVTVSS” belongs “high polyreactivity”; to “QVQLVESGGGLVQAGGSLRLSCAASGSIFSYYVMGWYRQAPGKERELVAAITSSGGSTYYADSVKGRFTISRDNAKNTVYLQMNSLKPEDTAVYYCAAYQRSQYRSYPGYEYWGQGTQVTVSS”, “high polyreactivity”; to “QVQLVESGGGLVQAGGSLRLSCAASGSIFTDNAMGWYRQAPGKERELVAAITGRGGNTYYADSVKGRFPISRDIAKNPVYLQMNSLKPEDTAVYYCAARIFRTRKPLGYWGQGTQVTVSS”, “high polyreactivity”.
To “QVQLVESGGGLVQAGGSLRLSCAASGSIFTDNSMGWYRQAPGKERELVAAIDSVGSTYYADSVKGRFTISRDNAKNTVYLQMNSLKPEDTAVYYCAADLYFPYESYYWGQGTQVTVSS” belongs “low polyreactivity”; to “QVQLVESGGGLVQAGGSLRLSCAASGSIFTDYTMGWSRQAPGKERELVAAISWIGDSTDYADSVKGRFTISRDNAKNTVYLQMNSLKPEDTAVYYCAKSRAGRYNDYDYWGQGTQVTVSS”, “low polyreactivity”.
In the case of “QVQLVESGGGLVQAGGSLRLSCAASGSIFTENAMGWYRQAPGKERELVAAIRWDDGNTYYADSVKGRFTISRDNAKNTVYLQMNSLKTEDTAVYYCNADKWSSTDDWLYDYWGQGTQVTVSS” it was “low polyreactivity”.
On to “QVQLVESGGGLVQAGGSLRLSCAASGSIFTFYAMGWYRQAPGKERELVAAISSGGDTYYADSVKGRFTISRDNAKNTVYLQMNSLKAEDTAVYYCAADWRGSYLYGYYYWGQGTQVTVSS”, for which the “polyreactivity (PSR sort gate)” value is reported as “low polyreactivity”.
In the case of “QVQLVESGGGLVQAGGSLRLSCAASGSIFTFYAMGWYRQAPGKERELVAAITTIGGRTYYADSVKGRFTISRDNAKNTVYLQMNSLKPEDTAVYYCAAGYRAWEPYGHYGYWGQGTQVTVSS” it was “high polyreactivity”.
